Measurements reported in patent US20070196860.

Experiments:
[1] = system: SEQ ID NO. 41, Ac-SxPGSDDDDD-NH2
[2] = system: SEQ ID NO. 27, Ac-SxPGSFRRR-NH2
[3] = system: SEQ ID NO. 30, Ac-ALKLSRYPSFdPSxG-NH2
[4] = system: SEQ ID NO. 48, Ac-EEEEYIQdPSxG-NH2
[5] = system: SEQ ID NO. 42, Ac-SxPGIYAAPFAKKK-NH2

MK2 enzyme, sequence (P49137 whole entry): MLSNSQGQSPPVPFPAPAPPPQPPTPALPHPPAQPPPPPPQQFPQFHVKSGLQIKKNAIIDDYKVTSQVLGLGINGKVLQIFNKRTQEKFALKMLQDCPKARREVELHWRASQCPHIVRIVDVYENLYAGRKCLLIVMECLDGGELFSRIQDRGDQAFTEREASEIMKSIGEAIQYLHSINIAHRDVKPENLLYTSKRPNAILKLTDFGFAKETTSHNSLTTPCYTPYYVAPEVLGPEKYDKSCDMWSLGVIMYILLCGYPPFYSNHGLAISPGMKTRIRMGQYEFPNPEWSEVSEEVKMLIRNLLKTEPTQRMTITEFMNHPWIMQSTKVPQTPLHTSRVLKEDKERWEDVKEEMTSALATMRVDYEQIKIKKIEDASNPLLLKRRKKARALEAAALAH

Erk1/2 kinase
reaction rate, PDGF-treated NIH3T3 lysate [1]: The PDGF-treated sample showed a reaction rate of 1.55 RFU/sec | reaction rate, control treated NIH3T3 lysate [1]: the control treated sample had a markedly reduced rate of 0.27 RFU/sec

MK2 enzyme
fluorescence signal at plateau; cascade reaction started by B-Raf captured from NGF-treated PC12 lysate [2]: fluorescence signals that reached a plateau at 150 minutes of incubation (3200 RFU) | fluorescence signal at plateau; cascade reaction started by ERK1/2 captured from PDGF-treated NIH3T3 lysate [2]: a fluorescence signal of 3000 RFU that reached a plateau at 335 minutes of incubation | fluorescence signal at plateau; cascade reaction started by MEK1 captured from PDGF-treated NIH3T3 lysate [2]: fluorescence signal of 3650 RFU that reached a plateau at 250 minutes of incubation | fluorescence signal at plateau; cascade reaction started by p38 MAPK captured from anisomycin treated RAW lysate [2]: fluorescence signal of 3350 RFU that reached a plateau at 60 minutes of incubation | fluorescence signal; cascade reaction started by ERK1/2 captured from control NIH3T3 lysate [2]: the control group produced fluorescence signal of 845 RFU | fluorescence signal; cascade reaction started by MEK1 captured from control NIH3T3 lysate [2]: the control group produced fluorescence signal of 1050 RFU | fluorescence signal; cascade reaction started by p38 MAPK captured from control RAW lysate [2]: the control group produced fluorescence signal of 1250 RFU

RSK
reaction rate, PMA-treated HeLa lysate [3]: The PMA-treated sample showed a reaction rate of 3.17 RFU/sec | reaction rate, control treated HeLa lysate [3]: the control treated sample had a markedly reduced rate of 0.64 RFU/sec

c-Src
reaction rate, c-Src transfected CEF lysate [4]: The c-Src transfected CEF sample showed a reaction rate of 50 RFU/sec | reaction rate, mock transfected (control) CEF lysate [4]: the control treated sample had a markedly reduced rate of 0.048 RFU/sec

p70-S6K
reaction rate, control treated MCF-7 lysate [5]: the control treated sample had a markedly reduced rate of 0.12 RFU/sec | reaction rate, insulin-treated MCF-7 lysate [5]: The insulin-treated sample showed a reaction rate of 1.13 RFU/sec
